Laboratory results as given in PMC3060825, “Structure and Function of the First Full-Length Murein Peptide Ligase (Mpl) Cell Wall Recycling Protein” (PLoS ONE, 2011).
One block for each molecule: values may come before it.

What was measured:
[1] = target: murein peptide ligase (Mpl) from Psychrobacter arcticus 273-4 (Psychrobacter arcticus 273-4); assay: SEC; elution of the same Superdex 200 run (refractive index trace) compared with the BioRad gel filtration standard (158, 44 and 17 kDa)
[2] = target: murein peptide ligase (Mpl) from Psychrobacter arcticus 273-4 (Psychrobacter arcticus 273-4); assay: SEC-MALS; SEC/SLS: 1x30 cm Superdex 200 coupled with miniDAWN static light scattering and Optilab differential refractive index detectors; 20 mM Tris-HCl pH 8.0, 150 mM sodium chloride, 0.02% sodium azide; molecular weight by ASTRA 5.1.5
[3] = target: the molecule itself; assay: SEC; 100 µl of 1.3 mg of EcMpl on Superdex 200 10/300 GL; 20 mM potassium phosphate pH 7.4, 0.15 mM NaCl, 0.01% 2-mercaptoethanol; 0.5 ml/min, detection at 280 nm
[4] = substrate: CC(=O)N[C@H]1[C@@H](OP(=O)(O)OP(=O)(O)OC[C@H]2O[C@@H](n3ccc(=O)[nH]c3=O)[C@H](O)[C@@H]2O)O[C@H](CO)[C@@H](O)[C@@H]1O[C@H](C)C(=O)O; assay: purified protein; assay type: biochemical, Psychrobacter arcticus; conditions: 5 mM ATP, 0.25 mM L-Ala-γ-D-Glu-meso-A2pm, 5 mM MgCl2, pH 8.4, 30 min, labelled compound
[5] = substrate: Nc1ncnc2c1ncn2[C@@H]1O[C@H](COP(=O)(O)OP(=O)(O)OP(=O)(O)O)[C@@H](O)[C@H]1O; assay: purified protein; assay type: biochemical, Psychrobacter arcticus; conditions: 0.4 mM UDP-MurNAc, 0.25 mM L-Ala-γ-D-Glu-meso-A2pm, 5 mM MgCl2, pH 8.4, 30 min

stoichiometry N [1]: 4 | stoichiometry N [2]: 2.09
Molecule: murein peptide ligase (Mpl) from Psychrobacter arcticus 273-4 (enzyme)

B1: Mpl from Escherichia coli (enzyme, UniProt P37773 1-457, looked up)
chain: MRIHILGICGTFMGGLAMLARQLGHEVTGSDANVYPPMSTLLEKQGIELIQGYDASQLEPQPDLVIIGNAMTRGNPCVEAVLEKNIPYMSGPQWLHDFVLRDRWVLAVAGTHGKTTTAGMATWILEQCGYKPGFVIGGVPGNFEVSAHLGESDFFVIEADEYDCAFFDKRSKFVHYCPRTLILNNLEFDHADIFDDLKAIQKQFHHLVRIVPGQGRIIWPENDINLKQTMAMGCWSEQELVGEQGHWQAKKLTTDASEWEVLLDGEKVGEVKWSLVGEHNMHNGLMAIAAARHVGVAPADAANALGSFINARRRLELRGEANGVTVYDDFAHHPTAILATLAALRGKVGGTARIIAVLEPRSNTMKMGICKDDLAPSLGRADEVFLLQPAHIPWQVAEVAEACVQPAHWSGDVDTLADMVVKTAQPGDHILVMSNGGFGGIHQKLLDGLAKKAEAAQ
notes: Mpl (murein peptide ligase, UDP-MurNAc:L-Ala-gamma-D-Glu-meso-A2pm ligase), Escherichia coli; also called EcMpl; E. coli ortholog
stoichiometry N [3]: 2

B2: PaMpl (Psychrobacter arcticus 273-4) (protein)
chain: MHIHILGICGTFMGSLALLARALGHTVTGSDANIYPPMSTQLEQAGVTIEEGYLIAHLQPAPDLVVVGNAMKRGMDVIEYMLDTGLRYTSGPQFLSEQVLQSRHVIAVAGTHGKTTTTTMLAWILHYAGIDAGFLIGGVPLVNTTDTNLQQVFAHSSYLGTEKDDSDNSVNTGYFVIEADEYDSAFFDKRSKFVHYRPRTAILNNLEFDHADIFADLDAIQTQFHHMVRMIPSTGKIIMPAATISLEDTLAKGVWTPIWRTSVIDSTISSVRREDSPLENSQAENSSDWQAELISADGSQFTVSFNDNKEATALVNWSMSGLHNVNNALVAIAAAYNIGVSVKTACAALSAFAGIKRRMELIGDVNDILVFDDFAHHPTAITTTLDGAKKKLADRRLWAIIEPRSNTMKMGIHQDSLAQSATLADHTLWYEPTGLEWGLKEVIDNATIANPSIGSQQVLSSVDDIIKHICTHAKAGDAIVIMSNGGFEGIHQRLLTALGNIVAIL
notes: full length, 505 residues; N-terminal His6 tag (…) kept for kinetics; E. coli MLD2502 (delta mpl); 57,187 Da with tag; dimer in solution by light scattering
Km [4]: 1000 ± 130 µM | kcat [4]: 4.33 ± 0.333 s⁻¹ | kcat/Km [4]: 4330 ± 650 M⁻¹ s⁻¹ | Km [5]: 110 ± 50 µM | kcat [5]: 4.33 ± 0.333 s⁻¹ | kcat/Km [5]: 40000 ± 18300 M⁻¹ s⁻¹
